Consider 2 molecules from US20240124607A1 (Merck Sharp & Dohme, published 2024).

In general, EC50 refers to the midpoint of the concentration-response curve. What is called Kd is the concentration at which binding is half-saturated. Lower therefore signals higher affinity. The term kon denotes a measure of how fast the partners come together. Low values mean slow association, high ones fast association.

Assay [1] deals with T1, human CEACAM5 on cells (human, UniProt P06731 35-685).
T1 construct: tumour cell lines with endogenous CEACAM5, or B16F10 engineered to express hCEACAM5; also called CEACAM5 on MKN-45, HPAF-II, SK-CO-1, LoVo, BxPC-3, Kato-III, LS-174T, ZR-75-30; hCEACAM5-B16F10
T1 sequence: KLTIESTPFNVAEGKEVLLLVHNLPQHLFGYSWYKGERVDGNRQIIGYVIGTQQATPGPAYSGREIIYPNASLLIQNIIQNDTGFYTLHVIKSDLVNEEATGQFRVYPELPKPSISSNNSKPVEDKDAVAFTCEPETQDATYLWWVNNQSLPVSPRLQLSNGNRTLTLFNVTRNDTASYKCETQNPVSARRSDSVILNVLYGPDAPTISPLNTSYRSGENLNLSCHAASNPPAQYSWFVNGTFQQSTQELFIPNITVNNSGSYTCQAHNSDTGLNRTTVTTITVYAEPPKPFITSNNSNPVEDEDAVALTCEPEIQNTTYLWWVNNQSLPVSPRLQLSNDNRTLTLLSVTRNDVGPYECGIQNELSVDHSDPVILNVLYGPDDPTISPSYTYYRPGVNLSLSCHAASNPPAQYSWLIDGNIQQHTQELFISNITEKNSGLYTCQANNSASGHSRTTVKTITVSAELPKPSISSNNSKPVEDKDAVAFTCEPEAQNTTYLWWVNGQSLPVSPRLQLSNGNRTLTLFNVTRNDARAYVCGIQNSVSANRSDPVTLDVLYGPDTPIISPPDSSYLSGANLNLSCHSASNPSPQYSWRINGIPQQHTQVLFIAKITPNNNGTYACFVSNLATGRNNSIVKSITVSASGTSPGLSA
Nature of the assay: flow cytometry, SK-CO-1 cells. On the technique in general: Flow cytometry measures light scatter and fluorescence of single cells or particles in a stream.

The target in a further assay is T2, CEACAM5 A1-B1-Fc (human, UniProt P06731 145-322, limits assumed).
T2 construct: also called A1-B1 domain
T2 sequence: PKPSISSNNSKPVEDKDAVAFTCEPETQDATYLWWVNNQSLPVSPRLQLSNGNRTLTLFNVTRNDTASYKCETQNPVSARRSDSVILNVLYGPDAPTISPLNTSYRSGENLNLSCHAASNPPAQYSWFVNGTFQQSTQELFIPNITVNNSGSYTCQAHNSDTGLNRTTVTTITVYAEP
Nature of the assay: SPR, Fab capt, 25C. The protocol: If the protein domain was an Fc fusion, AB0411, AB0466, AB0264, or AB0621 were captured using an anti-human Fab antibody (Cytiva, #28958325) immobilized onto a CM5 chip. The various hCEACAM5 protein domains (N-term, A1-B1, A2, B2, A3, or B3) were titrated over the captured TriNKETs at 50 μL/min for 180 sec of association and 300 sec of dissociation. The assay was run at 25° C. in HBS-EP+ running buffer, pH 7.4. The surface of the CM5 chip was regenerated using […] glycine pH 2.1.
Background: In SPR one partner is held on a chip, and binding of the other changes the refractive index at the surface.

Assay [2] concerns the target T1, human CEACAM5 on cells. Put plainly: flow cytometry, Kato-III cells.
The target of assay [3] is T1, human CEACAM5 on cells. Nature of the assay: flow cytometry, LoVo cells.
Assay [4] has as its target T3, human CEACAM1 on Ba/F3 cells (human, UniProt P13688 35-526).
T3 construct: whole, on cells
T3 sequence (looked up): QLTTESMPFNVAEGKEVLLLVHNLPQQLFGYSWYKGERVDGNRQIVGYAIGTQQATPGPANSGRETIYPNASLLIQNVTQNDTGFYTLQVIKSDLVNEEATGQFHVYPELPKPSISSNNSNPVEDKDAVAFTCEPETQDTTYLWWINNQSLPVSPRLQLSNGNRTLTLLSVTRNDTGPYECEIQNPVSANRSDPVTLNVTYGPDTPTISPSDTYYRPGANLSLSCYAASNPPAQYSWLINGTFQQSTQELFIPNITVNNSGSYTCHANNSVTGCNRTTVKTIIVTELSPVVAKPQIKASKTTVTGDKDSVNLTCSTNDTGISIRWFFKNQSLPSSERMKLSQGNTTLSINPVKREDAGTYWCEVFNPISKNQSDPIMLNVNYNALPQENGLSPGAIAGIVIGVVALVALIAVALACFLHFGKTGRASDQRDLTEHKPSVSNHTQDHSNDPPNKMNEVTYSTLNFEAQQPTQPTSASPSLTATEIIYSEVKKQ
Put plainly: flow cytometry on Ba/F3 cells expressing human CEACAM1, fold over background (FOB), 5-fold dilutions from 1600 nM. The protocol:
To examine the binding specificity of the TriNKETs to CEACAM5 compared to other CEACAM family members, Ba/F3 cells were engineered to express one of human CEACAM1, CEACAM6, CEACAM8, or cynomolgus CEACAM5. CEACAM5 TriNKETs were evaluated by flow cytometry starting at 1600 nM followed by 7 5-fold dilutions.

The target in assay [5] is T1, human CEACAM5 on cells. Put plainly: flow cytometry, BxPC-3 cells.
Assay [6] concerns the target T1, human CEACAM5 on cells. Put plainly: flow cytometry, MKN-45 cells.

B1: AB0264 F3' CEACAM5 TriNKET (bispecific antibody, human IgG1, kappa)
chain: DIVMTQSPDSLAVSLGERATINCKSSHSLLYGNFQNNYLAWYQQKPGQPPKLLIYWASTRESGVPDRFSGSGSGTDFTLTISSLQAEDVAVYYCQQYYSYPYTFGCGTKLEIKGGGGSGGGGSGGGGSGGGGSQVQLVQSGAEVKKPGASVKVSCKASGYTFTAYTIHWVRQAPGQCLEWMGYINPSSGYTEYNQKFKDRTTLTADTSIPTAYMELSRLRSDDTAVYYCTREGGLLWFDYWGQGTLVTVSSGSDKTHTCPPCPAPELLGGPSVFLFPPKPKDTLMISRTPEVTCVVVDVSHEDPEVKFNWYVDGVEVHNAKTKPREEQYNSTYRVVSVLTVLHQDWLNGKEYKCKVSNKALPAPIEKTISKAKGQPREPRVYTLPPCRDELTKNQVSLTCLVKGFYPSDIAVEWESNGQPENNYKTTPPVLVSDGSFTLYSKLTVDKSRWQQGNVFSCSVMHEALHNHYTQKSLSLSPG
heavy: EVQLVESGGGLVKPGGSLRLSCAASGFTFSSYSMNWVRQAPGKGLEWVSSISSSSSYIYYADSVKGRFTISRDNAKNSLYLQMNSLRAEDTAVYYCARGAPIGAAAGWFDPWGQGTLVTVSSASTKGPSVFPLAPSSKSTSGGTAALGCLVKDYFPEPVTVSWNSGALTSGVHTFPAVLQSSGLYSLSSVVTVPSSSLGTQTYICNVNHKPSNTKVDKKVEPKSCDKTHTCPPCPAPELLGGPSVFLFPPKPKDTLMISRTPEVTCVVVDVSHEDPEVKFNWYVDGVEVHNAKTKPREEQYNSTYRVVSVLTVLHQDWLNGKEYKCKVSNKALPAPIEKTISKAKGQPREPQVCTLPPSRDELTENQVSLTCLVKGFYPSDIAVEWESNGQPENNYKTTPPVLDSDGSFFLYSWLTVDKSRWQQGNVFSCSVMHEALHNHYTQKSLSLSPG
light: DIQMTQSPSSVSASVGDRVTITCRASQGISSWLAWYQQKPGKAPKLLIYAASSLQSGVPSRFSGSGSGTDFTLTISSLQPEDFATYYCQQGVSFPRTFGGGTKVEIKRTVAAPSVFIFPPSDEQLKSGTASVVCLLNNFYPREAKVQWKVDNALQSGNSQESVTEQDSKDSTYSLSSTLTLSKADYEKHKVYACEVTHQGLSSPVTKSFNRGEC
For the molecule B1, the EC50 in the assay with human CEACAM5 on cells [1] came out at 104 nM; with human CEACAM5 on cells [2] it was 13.3 nM; with human CEACAM5 on cells [3] it was 22.1 nM; with human CEACAM5 on cells [5] it was 30.5 nM; with human CEACAM5 on cells [6], 20.7 nM. For the same molecule, the “Max FOB” value is 42 fold over background with human CEACAM5 on cells [1]; 4 fold over background with human CEACAM5 on cells [2]; 14 fold over background with human CEACAM5 on cells [3]; 12 fold over background with human CEACAM5 on cells [5]; 60 fold over background with human CEACAM5 on cells [6]. Also, binding with CEACAM5 A1-B1-Fc was put at a Kd of 1 nM. The kon in the assay with CEACAM5 A1-B1-Fc amounted to 260000 M⁻¹ s⁻¹. In assay [4], the binding result is “no binding (tested: 1600 nM)”.

B2: AB0411 F3' CEACAM5 TriNKET (bispecific antibody, human IgG1, kappa)
chain: DIQLTQSPATLSVSPGERATLSCRASQSVSSSYLAWYQQKPGQAPRLLIYGASSRATGIPDRFSGSGSGTDFTLTISRLEPEDFAVYYCQQYNNWPLTFGCGTKVEIKGGGGSGGGGSGGGGSGGGGSQVQLVQSGGGLVQPGGSLRLSCAASGFTFTSYAMSWVRQAPGKCLEWVSAISGTGDSTFYADSVKGRFTFSRDNSKNTLYLQMNSLRAEDTAVYYCAKDLGWLQYGLFDYWGQGTLVTVSSGSDKTHTCPPCPAPELLGGPSVFLFPPKPKDTLMISRTPEVTCVVVDVSHEDPEVKFNWYVDGVEVHNAKTKPREEQYNSTYRVVSVLTVLHQDWLNGKEYKCKVSNKALPAPIEKTISKAKGQPREPRVYTLPPCRDELTKNQVSLTCLVKGFYPSDIAVEWESNGQPENNYKTTPPVLVSDGSFTLYSKLTVDKSRWQQGNVFSCSVMHEALHNHYTQKSLSLSPG
heavy: EVQLVESGGGLVKPGGSLRLSCAASGFTFSSYSMNWVRQAPGKGLEWVSSISSSSSYIYYADSVKGRFTISRDNAKNSLYLQMNSLRAEDTAVYYCARGAPIGAAAGWFDPWGQGTLVTVSSASTKGPSVFPLAPSSKSTSGGTAALGCLVKDYFPEPVTVSWNSGALTSGVHTFPAVLQSSGLYSLSSVVTVPSSSLGTQTYICNVNHKPSNTKVDKKVEPKSCDKTHTCPPCPAPELLGGPSVFLFPPKPKDTLMISRTPEVTCVVVDVSHEDPEVKFNWYVDGVEVHNAKTKPREEQYNSTYRVVSVLTVLHQDWLNGKEYKCKVSNKALPAPIEKTISKAKGQPREPQVCTLPPSRDELTENQVSLTCLVKGFYPSDIAVEWESNGQPENNYKTTPPVLDSDGSFFLYSWLTVDKSRWQQGNVFSCSVMHEALHNHYTQKSLSLSPG
light: DIQMTQSPSSVSASVGDRVTITCRASQGISSWLAWYQQKPGKAPKLLIYAASSLQSGVPSRFSGSGSGTDFTLTISSLQPEDFATYYCQQGVSFPRTFGGGTKVEIKRTVAAPSVFIFPPSDEQLKSGTASVVCLLNNFYPREAKVQWKVDNALQSGNSQESVTEQDSKDSTYSLSSTLTLSKADYEKHKVYACEVTHQGLSSPVTKSFNRGEC
Turning to B2, the EC50 with human CEACAM5 on cells [1] stood at 8.67 nM; in the assay with human CEACAM5 on cells [2], 1.17 nM; with human CEACAM5 on cells [3], 3.25 nM; in the assay with human CEACAM5 on cells [5], 4.28 nM; with human CEACAM5 on cells [6], 9.05 nM. Besides, the “Max FOB” value came to 37 fold over background in the assay with human CEACAM5 on cells [1]; 5 fold over background with human CEACAM5 on cells [2]; 19 fold over background with human CEACAM5 on cells [3]; 19 fold over background with human CEACAM5 on cells [5]; 107 fold over background in the assay with human CEACAM5 on cells [6].
